How the values were obtained:
HpxO = target: T1, HpxO (Klebsiella pneumoniae, UniProt A6T923); assay: steady-state rate against NADPH, no saturation; format: biochemical; details: read-out: Km,NADPH; urate as co-substrate; printed as lower limit
T1 sequence (A6T923 1-384): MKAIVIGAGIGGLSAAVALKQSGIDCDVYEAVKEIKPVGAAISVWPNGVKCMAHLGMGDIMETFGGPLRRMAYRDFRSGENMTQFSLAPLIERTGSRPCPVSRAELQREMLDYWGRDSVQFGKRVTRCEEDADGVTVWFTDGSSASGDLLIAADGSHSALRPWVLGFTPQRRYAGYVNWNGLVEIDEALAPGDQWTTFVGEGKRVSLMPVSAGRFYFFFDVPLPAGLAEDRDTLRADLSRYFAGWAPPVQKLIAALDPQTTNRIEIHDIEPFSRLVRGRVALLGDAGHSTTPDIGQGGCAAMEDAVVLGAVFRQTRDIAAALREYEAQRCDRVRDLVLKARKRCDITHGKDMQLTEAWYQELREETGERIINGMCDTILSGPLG

purified protein = substrate: O=c1[nH]c(=O)c2[nH]c(=O)[nH]c2[nH]1; assay: purified protein; format: biochemical, Klebsiella pneumoniae; details: NADH as co-substrate, saturating (1.5 mM)

Q: `NC(=O)C1=CN([C@@H]2O[C@H](COP(=O)(O)OP(=O)(O)OC[C@H]3O[C@@H](n4cnc5c(N)ncnc54)[C@H](OP(=O)(O)O)[C@@H]3O)[C@@H](O)[C@H]2O)C=CC1` [NADPH] was tested. Which Km (HpxO) did it give?
A: > 1000 µM

B1: HpxO (Klebsiella pneumoniae subsp. pneumoniae MGH 78578) (protein)
chain: MKAIVIGAGIGGLSAAVALKQSGIDCDVYEAVKEIKPVGAAISVWPNGVKCMAHLGMGDIMETFGGPLRRMAYRDFRSGENMTQFSLAPLIERTGSRPCPVSRAELQREMLDYWGRDSVQFGKRVTRCEEDADGVTVWFTDGSSASGDLLIAADGSHSALRPWVLGFTPQRRYAGYVNWNGLVEIDEALAPGDQWTTFVGEGKRVSLMPVSAGRFYFFFDVPLPAGLAEDRDTLRADLSRYFAGWAPPVQKLIAALDPQTTNRIEIHDIEPFSRLVRGRVALLGDAGHSTTPDIGQGGCAAMEDAVVLGAVFRQTRDIAAALREYEAQRCDRVRDLVLKARKRCDITHGKDMQLTEAWYQELREETGERIINGMCDTILSGPLG
Q: With B1 as the molecule, how does the Km (purified protein) read?
A: 42 ± 8 µM

Q: And the kcat (purified protein)?
A: 42 ± 2 s⁻¹

— publication PMC2842088 (Biochemistry, 2009)
